Data on 1 substance can be found in US6673896.

For the test, the target named is T4 glycoprotein (human T cell surface protein T4) (human) (UniProt P01730). As to the kind of experiment: cell-based or functional assay.

In turn, OKT4A monoclonal antibody showed a VSV PSEUDOTYPE TITER, VSV(AIDS) +αT4A, CEM(T4+) cells of 200 PFU/ml; a VSV PSEUDOTYPE TITER, VSV(AIDS) +αT4A, HSB2-T4+ cells of 300 PFU/ml; a VSV PSEUDOTYPE TITER, VSV(AIDS) +αT4A, HeLa-T4+ cells of 200 PFU/ml; a VSV PSEUDOTYPE TITER, VSV(AIDS) +αT4A, Raji-T4+ cells of 150 PFU/ml.
